We go through four molecules from article PMC10397247.

One experiment concerns the target T1, Core_NIII-es_KKEK.
T1 chain: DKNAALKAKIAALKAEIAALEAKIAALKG
The experiment is described as follows: two-hybrid library CCmax.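 Also: natural log of median RNA to DNA barcode read ratio; higher means stronger binding.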 The following applies: mean of both orientations.

A further experiment has as its target T2, 4H1068-AA.
T2 chain: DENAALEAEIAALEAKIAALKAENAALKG
In words: two-hybrid library CCmax.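 Also: natural log of median RNA to DNA barcode read ratio; higher means stronger binding.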

A further experiment addresses T3, 4H121-AA.
T3 chain: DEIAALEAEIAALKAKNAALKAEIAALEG
The experiment is described as follows: two-hybrid library CCmax.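 Also: natural log of median RNA to DNA barcode read ratio; higher means stronger binding.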 The settings on record: mean of both orientations.

Another experiment deals with T4, 4H1350-AA.
T4 chain: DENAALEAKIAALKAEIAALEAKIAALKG
In words: two-hybrid library CCmax.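 Also: natural log of median RNA to DNA barcode read ratio; higher means stronger binding.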 The following applies: mean of both orientations.

For the next experiment, the target named is T5, 4H1710-AA.
T5 chain: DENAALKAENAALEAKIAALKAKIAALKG
In words: two-hybrid library CCmax.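 Also: natural log of median RNA to DNA barcode read ratio; higher means stronger binding.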 The settings on record: mean of both orientations.

In a further experiment the target is T6, 4H1985-AA.
T6 chain: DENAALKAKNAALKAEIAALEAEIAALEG
In words: two-hybrid library CCmax.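 Also: natural log of median RNA to DNA barcode read ratio; higher means stronger binding.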 The following applies: mean of both orientations.

The next experiment has as its target T7, 4H2187-AA.
T7 chain: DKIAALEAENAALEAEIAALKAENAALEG
In words: two-hybrid library CCmax. The following applies: mean of both orientations.

The target in another experiment is T8, 4H233-AA.
T8 chain: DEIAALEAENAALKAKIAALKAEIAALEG
The experiment is described as follows: two-hybrid library CCmax. The following applies: mean of both orientations.

For another experiment, the target named is T9, 4H2512-AA.
T9 chain: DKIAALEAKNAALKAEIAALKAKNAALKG
In words: two-hybrid library CCmax. The following applies: mean of both orientations.

Another experiment has as its target T10, 4H2646-AA.
T10 chain: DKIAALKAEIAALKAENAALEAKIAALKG
The experiment is described as follows: two-hybrid library CCmax. The settings on record: mean of both orientations.

In the next experiment the target is T11, 4H2687-AA.
T11 chain: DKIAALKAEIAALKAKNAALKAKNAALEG
In words: two-hybrid library CCmax. The following applies: mean of both orientations.

A further experiment deals with T12, 4H2705-AA.
T12 chain: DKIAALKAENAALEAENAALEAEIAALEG
In words: two-hybrid library CCmax. The following applies: mean of both orientations.

The next experiment concerns the target T13, 4H2758-AA.
T13 chain: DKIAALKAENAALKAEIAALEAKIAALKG
The experiment is described as follows: two-hybrid library CCmax. The following applies: mean of both orientations.

Another experiment deals with T14, 4H278-AA.
T14 chain: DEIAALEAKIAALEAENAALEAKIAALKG
The experiment is described as follows: two-hybrid library CCmax. The settings on record: mean of both orientations.

For the next experiment, the target named is T15, 4H2873-AA.
T15 chain: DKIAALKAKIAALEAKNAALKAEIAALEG
In words: two-hybrid library CCmax. The following applies: mean of both orientations.

The next experiment deals with T16, 4H2985-AA.
T16 chain: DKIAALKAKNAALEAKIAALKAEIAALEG
The experiment is described as follows: two-hybrid library CCmax. The following applies: mean of both orientations.

Another experiment deals with T17, 4H3134-AA.
T17 chain: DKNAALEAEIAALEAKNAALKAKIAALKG
In words: two-hybrid library CCmax. The settings on record: mean of both orientations.

Another experiment concerns the target T18, 4H3409-AA.
T18 chain: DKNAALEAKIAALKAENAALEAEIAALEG
In words: two-hybrid library CCmax. The settings on record: mean of both orientations.

A further experiment has as its target T19, 4H3625-AA.
T19 chain: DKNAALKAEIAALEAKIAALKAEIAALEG
The experiment is described as follows: two-hybrid library CCmax. The following applies: mean of both orientations.

The next experiment has as its target T20, 4H390-AA.
T20 chain: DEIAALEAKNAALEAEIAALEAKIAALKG
The experiment is described as follows: two-hybrid library CCmax. The following applies: mean of both orientations.

The target in a further experiment is T21, 4H3940-AA.
T21 chain: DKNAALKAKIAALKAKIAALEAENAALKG
In words: two-hybrid library CCmax. The settings on record: mean of both orientations.

Another experiment addresses T22, 4H510-AA.
T22 chain: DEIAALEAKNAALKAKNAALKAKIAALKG
The experiment is described as follows: two-hybrid library CCmax. The following applies: mean of both orientations.

For a further experiment, the target named is T23, 4H775-AA.
T23 chain: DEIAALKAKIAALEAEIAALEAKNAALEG
In words: two-hybrid library CCmax. The settings on record: mean of both orientations.

The target of another experiment is T24, 4H816-AA.
T24 chain: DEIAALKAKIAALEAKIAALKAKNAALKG
In words: two-hybrid library CCmax. The following applies: mean of both orientations.

For another experiment, the target named is T25, 4H87-AA.
T25 chain: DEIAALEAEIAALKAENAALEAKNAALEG
The experiment is described as follows: two-hybrid library CCmax. The settings on record: mean of both orientations.

The target of another experiment is T26, 4H1222-bA.
T26 chain: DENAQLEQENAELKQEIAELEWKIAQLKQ
The experiment is described as follows: two-hybrid library CCNG1.

A further experiment has as its target T27, 4H1338-bA.
T27 chain: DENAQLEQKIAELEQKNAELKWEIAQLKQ
The experiment is described as follows: two-hybrid library CCNG1.

In the next experiment the target is T28, 4H1348-bA.
T28 chain: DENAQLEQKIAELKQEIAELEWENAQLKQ
In words: two-hybrid library CCNG1.

In a further experiment the target is T29, 4H1359-bA.
T29 chain: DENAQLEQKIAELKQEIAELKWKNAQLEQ
The experiment is described as follows: two-hybrid library CCNG1.

In the next experiment the target is T30, 4H1373-bA.
T30 chain: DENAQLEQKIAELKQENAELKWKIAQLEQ
In words: two-hybrid library CCNG1.

A further experiment deals with T31, 4H1393-bA.
T31 chain: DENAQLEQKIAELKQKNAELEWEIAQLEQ
The experiment is described as follows: two-hybrid library CCNG1.

In a further experiment the target is T32, 4H1449-bA.
T32 chain: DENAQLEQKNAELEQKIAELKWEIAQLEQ
In words: two-hybrid library CCNG1.

A further experiment addresses T33, 4H1544-bA.
T33 chain: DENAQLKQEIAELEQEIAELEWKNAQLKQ
The experiment is described as follows: two-hybrid library CCNG1.

The target of the next experiment is T34, 4H1629-bA.
T34 chain: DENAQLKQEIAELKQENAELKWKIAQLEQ
The experiment is described as follows: two-hybrid library CCNG1.

A further experiment concerns the target T35, 4H1710-bA.
T35 chain: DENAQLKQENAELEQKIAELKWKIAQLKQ
The experiment is described as follows: two-hybrid library CCNG1.

The next experiment addresses T36, 4H1804-bA.
T36 chain: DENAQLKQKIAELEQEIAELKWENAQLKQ
The experiment is described as follows: two-hybrid library CCNG1.

The next experiment addresses T37, 4H1899-bA.
T37 chain: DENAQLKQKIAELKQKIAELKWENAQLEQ
In words: two-hybrid library CCNG1.

For another experiment, the target named is T38, 4H1985-bA.
T38 chain: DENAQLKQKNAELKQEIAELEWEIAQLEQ
In words: two-hybrid library CCNG1.

A further experiment concerns the target T39, 4H3129-bA.
T39 chain: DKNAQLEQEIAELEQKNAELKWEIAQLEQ
In words: two-hybrid library CCNG1.

The target of the next experiment is T40, 4H3172-bA.
T40 chain: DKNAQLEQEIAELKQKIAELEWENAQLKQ
In words: two-hybrid library CCNG1.

Another experiment addresses T41, 4H3414-bA.
T41 chain: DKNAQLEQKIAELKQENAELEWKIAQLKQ
The experiment is described as follows: two-hybrid library CCNG1.

A further experiment addresses T42, 4H3613-bA.
T42 chain: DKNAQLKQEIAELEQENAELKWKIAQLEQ
In words: two-hybrid library CCNG1.

In a further experiment the target is T43, 4H3628-bA.
T43 chain: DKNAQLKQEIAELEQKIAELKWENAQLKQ
The experiment is described as follows: two-hybrid library CCNG1.

A further experiment addresses T44, 4H3631-bA.
T44 chain: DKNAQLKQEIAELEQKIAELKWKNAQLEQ
The experiment is described as follows: two-hybrid library CCNG1.

The target in another experiment is T45, 4H3638-bA.
T45 chain: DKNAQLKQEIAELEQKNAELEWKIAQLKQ
The experiment is described as follows: two-hybrid library CCNG1.

Another experiment concerns the target T46, 4H3817-bA.
T46 chain: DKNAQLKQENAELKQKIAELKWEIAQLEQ
The experiment is described as follows: two-hybrid library CCNG1.

Another experiment has as its target T47, 4H3858-bA.
T47 chain: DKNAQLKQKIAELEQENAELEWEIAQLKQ
The experiment is described as follows: two-hybrid library CCNG1.

The next experiment concerns the target T48, 4H3974-bA.
T48 chain: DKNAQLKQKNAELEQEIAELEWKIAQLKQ
The experiment is described as follows: two-hybrid library CCNG1.

Another experiment has as its target T49, 4H570-bA.
T49 chain: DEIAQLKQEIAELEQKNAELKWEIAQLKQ
The experiment is described as follows: two-hybrid library CCNG1.

A further experiment has as its target T50, 4H584-bA.
T50 chain: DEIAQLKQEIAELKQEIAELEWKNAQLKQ
The experiment is described as follows: two-hybrid library CCNG1.

The next experiment has as its target T51, 4H619-bA.
T51 chain: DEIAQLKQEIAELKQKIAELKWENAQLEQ
The experiment is described as follows: two-hybrid library CCNG1.

The target of the next experiment is T52, 4H850-bA.
T52 chain: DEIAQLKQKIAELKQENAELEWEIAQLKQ
The experiment is described as follows: two-hybrid library CCNG1.

The next experiment has as its target T53, 4H906-bA.
T53 chain: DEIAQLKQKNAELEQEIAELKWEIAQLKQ
In words: two-hybrid library CCNG1.

The target in another experiment is T54, Core_NNIN-es_KEEE.
T54 chain: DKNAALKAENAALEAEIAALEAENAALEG
In words: two-hybrid library CCmax.

DENAALEAEIAALEAKIAALKAEIAALEG [Core_NIII-es_EEKE] showed an interaction score with Core_NIII-es_KKEK of 2.17.
For DENAALEAEIAALEAKIAALKAENAALKG [4H1068-AA], the interaction score in the experiment with 4H1068-AA is 0.409; in the experiment with 4H121-AA, -0.866; in the experiment with 4H1350-AA it was 0.695; in the experiment with 4H1710-AA, -1.11; with 4H1985-AA, 0.534; with 4H2187-AA, -1.71. The interaction score with 4H233-AA was 0.754; with 4H2512-AA, -1.06; with 4H2646-AA, -0.0619; in the experiment with 4H2687-AA, 0.562; with 4H2705-AA, -1.15; with 4H2758-AA, -1.99. The interaction score was -0.737 in the experiment with 4H278-AA; -0.197 with 4H2873-AA; -0.0876 with 4H2985-AA; -0.167 in the experiment with 4H3134-AA; -1.36 in the experiment with 4H3409-AA; -0.226 in the experiment with 4H3625-AA. In addition, the interaction score was -0.217 in the experiment with 4H390-AA; 2.05 with 4H3940-AA; -1.05 in the experiment with 4H510-AA; -0.238 with 4H775-AA; 0.372 in the experiment with 4H816-AA; -0.863 with 4H87-AA.
DENAQLEQENAELKQEIAELEWKIAQLKQ [4H1222-bA]: the interaction score with 4H1222-bA is 0.532; in the experiment with 4H1338-bA, 0.202; with 4H1348-bA it was 0.605; with 4H1359-bA it was -0.0139; with 4H1373-bA it was -0.665; with 4H1393-bA it was 0.0501. The interaction score with 4H1449-bA was 0.729; in the experiment with 4H1544-bA, 0.517; with 4H1629-bA, -0.826; with 4H1710-bA, 2.36; in the experiment with 4H1804-bA, -0.0181; with 4H1899-bA, 1.1. The interaction score with 4H1985-bA was 1.8; with 4H3129-bA, -1.85; in the experiment with 4H3172-bA it was 0.388; with 4H3414-bA, -0.0927; with 4H3613-bA it was -0.452; with 4H3628-bA, -0.374. In addition, the interaction score was 0.222 with 4H3631-bA; -0.958 with 4H3638-bA; 1.18 with 4H3817-bA; -0.31 with 4H3858-bA; 0.693 with 4H3974-bA; 0.341 with 4H570-bA. For the same molecule, the interaction score was -1.36 in the experiment with 4H584-bA, -1.01 with 4H619-bA, -0.2 in the experiment with 4H850-bA and -0.403 with 4H906-bA.
With DENAALEAKNAALKAKIAALKAKNAALKG [Core_NNIN-es_EKKK], the interaction score in the experiment with Core_NNIN-es_KEEE turned out to be 1.83.
